Results: US20210032365A1 (Chugai, published 2021)
Where a chain is given by its changes, count along the chain named. In names and notes the source's numbering stands. Like-named read-outs stand apart in the source and are kept apart here. One block for each binder: values may come before it.

How the values were obtained:
Serum-derived human C1s [1] = target: T1, Serum-derived human C1s (human, UniProt P09871 16-688); experiment: SPR Biacore T200, 37 C, antibody captured on protein A/G, pH 5.8, 1.2 mM CaCl2; marked *: not accurately determined, low binding response
T1 construct: The analyte was C1s purified from serum; also called hC1s
T1 sequence: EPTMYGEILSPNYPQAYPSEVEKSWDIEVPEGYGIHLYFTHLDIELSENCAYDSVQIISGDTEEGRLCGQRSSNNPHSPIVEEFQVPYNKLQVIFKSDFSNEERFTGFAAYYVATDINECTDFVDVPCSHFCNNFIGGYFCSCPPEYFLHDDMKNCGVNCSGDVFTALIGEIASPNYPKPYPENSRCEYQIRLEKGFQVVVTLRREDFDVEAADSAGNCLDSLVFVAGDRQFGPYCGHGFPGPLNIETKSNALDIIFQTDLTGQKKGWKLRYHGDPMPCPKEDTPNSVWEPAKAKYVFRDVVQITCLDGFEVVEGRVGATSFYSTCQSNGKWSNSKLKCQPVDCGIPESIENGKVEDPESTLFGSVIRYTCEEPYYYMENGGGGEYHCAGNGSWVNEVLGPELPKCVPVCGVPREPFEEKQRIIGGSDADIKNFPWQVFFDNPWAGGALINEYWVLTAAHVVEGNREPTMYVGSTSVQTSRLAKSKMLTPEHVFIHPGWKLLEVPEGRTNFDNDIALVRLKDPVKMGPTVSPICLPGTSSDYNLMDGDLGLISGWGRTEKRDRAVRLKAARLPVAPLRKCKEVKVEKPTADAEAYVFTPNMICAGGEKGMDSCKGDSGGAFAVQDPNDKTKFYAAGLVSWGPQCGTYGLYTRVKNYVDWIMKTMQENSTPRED
Protocol: The binding affinity of all histidine-substituted variants at pH 7.4 and pH 5.8 were determined at 37 degrees C. using Biacore T200 instrument (GE Healthcare). Recombinant Protein A/G (Pierce) was immobilized onto all flow cells of a CM4 sensor chip using amine coupling kit (GE Healthcare). Antibodies and analytes were prepared in 7(+) buffer (20 mM ACES, 150 mM NaCl, 1.2 mM CaCl2, 0.05% Tween 20, 0.005% NaN3, pH 7.4) or 5(+) buffer (20 mM ACES, 150 mM NaCl, 1.2 mM CaCl2), 0.05% Tween 20, 0.005% NaN3, pH 5.8). Each antibody was captured onto the sensor surface by protein A/G. Antibody capture levels were aimed at 200 resonance unit (RU). […] Sensor surface was regenerated each cycle with 10 mM Glycine-HCl pH 1.5. […] An additional dissociation phase at pH 5.8 was integrated immediately after the dissociation phase at pH 7.4. This dissociation rate in 5(+) buffer was determined by processing and fitting data using Scrubber 2.0 (BioLogic Software) curve fitting software.

Serum-derived human C1s [2] = target: T1, Serum-derived human C1s; experiment: SPR Biacore T200, 37 C, ratio of dissociation rates pH 5.8 / pH 7.4, 1.2 mM CaCl2
Serum-derived human C1s [3] = target: T1, Serum-derived human C1s; experiment: SPR Biacore T200, 37 C, antibody captured on protein A/G, pH 7.4, 1.2 mM CaCl2
human C1s [4] = target: T2, human C1s (human, UniProt P09871 16-688); experiment: SPR; KD at pH 5.8 (1.2 mM Ca) over KD at pH 7.4 (1.2 mM Ca)
T2 construct: Analyte in the Biacore assays; also called hC1s; serum-derived human C1s (CompTech)
T2 sequence: T1 sequence
Outline: (§1)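 Antibody captured on protein A/G (~200 RU) on Biacore T200 at 37C; serum-derived or recombinant human C1s injected at 50 nM, then dissociation. KD measured at pH 7.4 with 1.2 mM Ca and at pH 5.8 with 1.2 mM or 3 uM Ca; KD ratios pH 5.8/pH 7.4 calculated.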

human C1s [5] = target: T2, human C1s; experiment: as above; remark: listed apart in the source
Protocol: (§2) All variants were transiently expressed and purified by the method described above. The binding affinity of each histidine-substituted variant at pH 7.4 and pH 5.8 was determined at 37 degrees C. using Biacore T200 instrument (GE Healthcare). Recombinant Protein A/G (Pierce) was immobilized onto all flow cells of a CM4 sensor chip using an amine coupling kit (GE Healthcare). Antibodies and analytes were prepared in 7(+) buffer (20 mM ACES, 150 mM NaCl, 1.2 mM CaCl2, 0.05% Tween 20, 0.005% NaN3, pH 7.4), 5(+) buffer (20 mM ACES, 150 mM NaCl, 1.2 mM CaCl2, 0.05% Tween 20, 0.005% NaN3, pH 5.8), or 5(−) buffer (20 mM ACES, 150 mM NaCl, 3 micro M CaCl2, 0.05% Tween 20, 0.005% NaN3, pH 5.8). Each antibody was captured onto the sensor surface by protein A/G. Antibody capture levels were aimed at 200 resonance unit (RU). Serum-derived human C1s (CompTech) or recombinant C1s prepared in EXAMPLE 1 was injected at 50 nM, followed by dissociation. The sensor surface was regenerated in each cycle with 10 mM Glycine-HCl, pH 1.5. […] The ratio of KD 5.8+ to KD 7.4+(“KD 5+/7+”) and that of KD 5.8− to KD 7.4+(“KD 5−/7+”) were calculated. When the KD 5+/7+ or KD 5−/7+ of a variant is larger than that of the parent antibody IPN009VH2-SG4GK/IPN009VK3-SK1, that variant is considered to be “pH”- or “pH and Ca”-dependent, respectively. When binding response in 5(+) buffer and/or in 5(−) buffer of a variant is much lower than that of IPN09VH2/IPN009VK3, that variant is also considered as “pH”- and/or “pH and Ca”-dependent. Therefore, such mutations are effective to generate “pH”- and/or “pH and Ca”-dependent antibody. To further enhance “pH” and/or “pH and Ca” dependency, a combination of histidine mutations was conducted. Antibodies with combinations of histidine mutations were evaluated using Biacore by the method described above.

human C1s [6] = target: T2, human C1s; experiment: SPR (Biacore T200, 37C), Ab captured on protein A/G; pH 7.4, 1.2 mM Ca
Protocol: as §2

human C1s [7] = target: T2, human C1s; experiment: SPR; KD at pH 5.8 (3 uM Ca) over KD at pH 7.4 (1.2 mM Ca)
Outline: as §1

human C1s [8] = target: T2, human C1s; experiment: as above; remark: listed apart in the source
Protocol: as §2

human C1s [9] = target: T2, human C1s; experiment: SPR (Biacore T200, 37C), Ab captured on protein A/G; pH 5.8, 1.2 mM Ca
Protocol: as §2

human C1s [10] = target: T2, human C1s; experiment: SPR (Biacore T200, 37C), Ab captured on protein A/G; pH 5.8, 3 uM Ca
Outline: as §1

human C1s [11] = target: T2, human C1s; experiment: SPR (Biacore T200, 37C), Ab captured on protein A/G; pH 5.8, 1.2 mM Ca; remark: listed apart in the source
Outline: as §1

human C1s [12] = target: T2, human C1s; experiment: SPR (Biacore T200, 37C), Ab captured on protein A/G; pH 5.8, 3 uM Ca; remark: listed apart in the source
Protocol: as §2

Serum-derived human C1s [13] = target: T1, Serum-derived human C1s; experiment: SPR Biacore T200, 37 C, added dissociation phase at pH 5.8 (1.2 mM CaCl2) straight after that at pH 7.4
Protocol: (§3) The binding affinity of all histidine-substituted variants at pH 7.4 and pH 5.8 were determined at 37 degrees C. using Biacore T200 instrument (GE Healthcare). Recombinant Protein A/G (Pierce) was immobilized onto all flow cells of a CM4 sensor chip using amine coupling kit (GE Healthcare). Antibodies and analytes were prepared in 7(+) buffer (20 mM ACES, 150 mM NaCl, 1.2 mM CaCl2), 0.05% Tween 20, 0.005% NaN3, pH 7.4) or 5(+) buffer (20 mM ACES, 150 mM NaCl, 1.2 mM CaCl2, 0.05% Tween 20, 0.005% NaN3, pH 5.8). Each antibody was captured onto the sensor surface by protein A/G. Antibody capture levels were aimed at 200 resonance unit (RU). Serum-derived human C1s was injected at 50 nM, followed by dissociation. Sensor surface was regenerated each cycle with 10 mM Glycine-HCl pH 1.5. […] An additional dissociation phase at pH 5.8 was integrated immediately after the dissociation phase at pH 7.4. This dissociation rate in 5(+) buffer was determined by processing and fitting data using Scrubber 2.0 (BioLogic Software) curve fitting software (Table 9).

Serum-derived human C1s [14] = target: T1, Serum-derived human C1s; experiment: SPR Biacore T200, 37 C, ratio of dissociation rates pH 5.8 / pH 7.4, 1.2 mM CaCl2; remark: listed apart in the source
Protocol: as §3

Serum-derived human C1s [15] = target: T1, Serum-derived human C1s; experiment: SPR Biacore T200, 37 C, antibody captured on protein A/G, C1s at 50 nM, pH 7.4, 1.2 mM CaCl2
Protocol: as §3

Kd (Serum-derived human C1s [1]): 8530 nM
koff (Serum-derived human C1s [1]): 0.0237 s⁻¹
kon (Serum-derived human C1s [1]): 2780 M⁻¹ s⁻¹
koff (5.8+ of 775+)/koff (7.4+) (Serum-derived human C1s [2]): 16.3
Kd (Serum-derived human C1s [3]): 1.43 nM
kon (Serum-derived human C1s [3]): 574000 M⁻¹ s⁻¹
B1: IPN92H0286/IPN93L0205-SG136 (antibody, human IgG1, kappa, name in Kabat numbering)
heavy: EVMLVESGGGLVKPGGSLRLSCAASGFTFSNKAMSWVRQAPGKGLEWVATISSGGSHTYYLDSVKHRFTISRDNSKDTLYLQMNSLRAEDTALYYCARLFTGHAMDYWGQGTLVTVSSASTKGPSVFPLAPSSKSTSGGTAALGCLVKDYFPEPVTVSWNSGALTSGVHTFPAVLQSSGLYSLSSVVTVPSSSLGTQTYICNVNHKPSNTKVDKKVEPKSCDKTHTCPPCPAPELRRGPSVFLFPPKPKDTLMISRTPEVTCVVVDVSHEDPEVKFNWYVDGVEVHNAKTKPREEQYNSTYRVVSVLTVLHQDWLNGKEYKCKVSNKGLPSSIEKTISKAKGQPREPQVYTLPPSREEMTKNQVSLTCLVKGFYPSDIAVEWESNGQPENNYKTTPPVLDSDGSFFLYSKLTVDKSRWQQGNVFSCSVMHEALHNHYTQKSLSLSP
light: QIVLTQSPATLSLSPGERATLSCTASSSVSSSRLHWYQQKPGKAPKLWIYSTSNLASGVPSRFSGSGSGTDYTLTISSLQPEDFATYYCHQYHRHPPITFGQGTKLEIKRTVAAPSVFIFPPSDEQLKSGTASVVCLLNNFYPREAKVQWKVDNALQSGNSQESVTEQDSKDCTYSLSSTLTLSKADYEKHKVYACEVTHQGLSSPVTKSFNRGEC
notes: Substitutions are numbered by Kabat

koff (Serum-derived human C1s [13]): 0.00115 s⁻¹
koff (5.8+ of 775+)/koff (7.4+) (Serum-derived human C1s [14]): 0.77
Kd (Serum-derived human C1s [15]): 4.28 nM
koff (Serum-derived human C1s [15]): 0.0015 s⁻¹
kon (Serum-derived human C1s [15]): 350000 M⁻¹ s⁻¹
B4: C1_IPN009VH2-SG4GK/IPN93L0026-SK1 (antibody, V domains shown)
VH: EVMLVESGGGLVKPGGSLRLSCAASGFTFSNYAMSWVRQAPGKGLEWVATISSGGSHTYYLDSVKGRFTISRDNSKDTLYLQMNSLRAEDTALYYCARLFTGYAMDYWGQGTLVTVSS
VL: QIVLTQSPATLSLSPGERATLSCTASSSVSSSYLHWYQQKPGKAPKLWIYSTSNLASGVPSRFSGSGSGTDYTLTISSLQPEDFATYYCHQYYRLPPHTFGQGTKLEIKR
notes: It is read here as I96H (Kabat) in the VL IPN009VK3

KD 5(+)/7(+) (human C1s [5]): 10.1
koff (human C1s [6]): 0.000863 s⁻¹
kon (human C1s [6]): 446000 M⁻¹ s⁻¹
KD 5(-)/7(+) (human C1s [8]): 2.56
koff (human C1s [9]): 0.0142 s⁻¹
kon (human C1s [9]): 731000 M⁻¹ s⁻¹
koff (human C1s [12]): 0.00196 s⁻¹
kon (human C1s [12]): 396000 M⁻¹ s⁻¹
B6: C1_IPN92H0307-SG4GK/IPN93L0058-SK1 (antibody, human IgG4 S228P, kappa)
heavy: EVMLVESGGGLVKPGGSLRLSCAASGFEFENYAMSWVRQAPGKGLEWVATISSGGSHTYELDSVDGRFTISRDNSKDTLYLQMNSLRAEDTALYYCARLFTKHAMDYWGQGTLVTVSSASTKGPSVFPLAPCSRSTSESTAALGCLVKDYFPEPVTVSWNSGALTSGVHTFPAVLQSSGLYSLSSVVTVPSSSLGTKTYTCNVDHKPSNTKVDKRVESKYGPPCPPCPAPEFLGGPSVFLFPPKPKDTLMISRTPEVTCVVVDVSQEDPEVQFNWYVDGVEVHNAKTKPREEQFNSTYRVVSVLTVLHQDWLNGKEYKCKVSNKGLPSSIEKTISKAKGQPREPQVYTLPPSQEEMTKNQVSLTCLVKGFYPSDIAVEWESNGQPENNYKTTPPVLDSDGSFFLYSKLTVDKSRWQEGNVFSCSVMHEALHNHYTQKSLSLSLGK
light: B1 light with S28E, R33Y, H93Y, H95L, P96H, C173S
notes: also called IPN92H0307/IPN93L0058

More lines, now with the values behind:

B2: C1_IPN009VH2-SG4GK/IPN009VK3-SK1 (antibody, human IgG4 S228P, kappa)
heavy: not shown
light: B1 light with R33Y, H93Y, H95L, C173S
notes: Parent antibody; also called IPN009VH2/IPN009VK3; IPN09VH2/IPN09VK3
KD 5(+)/7(+) (human C1s [4]): 0.2
KD 5(+)/7(+) (human C1s [5]): 0.2
koff (human C1s [6]): 0.000298 s⁻¹
kon (human C1s [6]): 362000 M⁻¹ s⁻¹
KD 5(-)/7(+) (human C1s [7]): 4.09
KD 5(-)/7(+) (human C1s [8]): 4.09
koff (human C1s [9]): 0.000108 s⁻¹
kon (human C1s [9]): 662000 M⁻¹ s⁻¹
koff (human C1s [10]): 0.00204 s⁻¹
kon (human C1s [10]): 606000 M⁻¹ s⁻¹
koff (human C1s [11]): 0.000108 s⁻¹
kon (human C1s [11]): 662000 M⁻¹ s⁻¹
koff (human C1s [12]): 0.00204 s⁻¹
kon (human C1s [12]): 605000 M⁻¹ s⁻¹

B3: C1_IPN009VH2-SG4GK/IPN009VK3-SK1 (antibody, human IgG4 S228P, kappa)
heavy: not shown
light: B1 light with R33Y, H93Y, H95L, C173S
notes: also called IPN009VH2/IPN009VK3; IPN09VH2/IPN09VK3
koff (Serum-derived human C1s [13]): 0.000148 s⁻¹
koff (5.8+ of 775+)/koff (7.4+) (Serum-derived human C1s [14]): 0.4
koff (Serum-derived human C1s [15]): 0.00037 s⁻¹
kon (Serum-derived human C1s [15]): 298000 M⁻¹ s⁻¹

B5: C1_IPN92H0012-SG4GK/IPN009VK3-SK1 (antibody, V domains shown)
VH: B4 VH with I51H
VL: B4 VL with H98I
notes: Single histidine variant of the VH IPN009VH2, with SG4GK and SK1 constant regions
koff (Serum-derived human C1s [13]): 0.00109 s⁻¹
koff (5.8+ of 775+)/koff (7.4+) (Serum-derived human C1s [14]): 0.57
koff (Serum-derived human C1s [15]): 0.00192 s⁻¹
kon (Serum-derived human C1s [15]): 183000 M⁻¹ s⁻¹
